Target: nucleolin (on the surface of live Huh7 cells) (UniProt P19338)
Experiment: flow cytometry on live Huh7 cells
Details: 5 mM MgCl2, whole-cell apparent Kd, Dulbecco's PBS, 4.5 g/L glucose, 5 mM MgCl2, 0.1 mg/mL yeast tRNA, 1 mg/mL BSA, on ice 30 min, 2x10^5 cells in 200 uL, pH not stated

UniProt P19338, sequence (P19338 whole entry): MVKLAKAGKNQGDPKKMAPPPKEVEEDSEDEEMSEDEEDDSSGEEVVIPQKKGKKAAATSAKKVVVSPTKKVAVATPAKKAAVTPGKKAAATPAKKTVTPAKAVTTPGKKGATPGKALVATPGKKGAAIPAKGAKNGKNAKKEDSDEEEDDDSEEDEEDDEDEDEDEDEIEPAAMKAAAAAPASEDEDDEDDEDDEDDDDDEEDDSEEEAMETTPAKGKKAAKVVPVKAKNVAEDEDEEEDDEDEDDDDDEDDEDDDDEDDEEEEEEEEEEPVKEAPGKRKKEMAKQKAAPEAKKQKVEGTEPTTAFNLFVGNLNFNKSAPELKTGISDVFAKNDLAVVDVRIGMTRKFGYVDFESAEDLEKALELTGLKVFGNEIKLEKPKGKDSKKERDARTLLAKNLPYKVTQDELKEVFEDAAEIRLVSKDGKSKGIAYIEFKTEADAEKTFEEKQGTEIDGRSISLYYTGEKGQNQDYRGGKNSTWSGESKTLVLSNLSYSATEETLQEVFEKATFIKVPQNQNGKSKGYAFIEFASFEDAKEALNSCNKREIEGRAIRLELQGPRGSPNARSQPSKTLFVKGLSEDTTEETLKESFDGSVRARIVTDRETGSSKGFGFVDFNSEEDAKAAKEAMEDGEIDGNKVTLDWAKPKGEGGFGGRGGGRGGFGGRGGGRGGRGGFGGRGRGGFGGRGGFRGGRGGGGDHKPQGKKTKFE

GGTGGTGGTGGTTGTGGTGGTGGTGG [AS1411 (AGRO100)]
Kd: 54.8 nM

GGTGGTGGTGGTTGTGGTGGTGGTGG [AS1411-Dox adduct]
Kd (doxorubicin adducts via formaldehyde methylene links to guanine N2, 5.4 +/- 0.1 Dox per strand): 57.3 nM

Source: article PMC4629891
